Measurements as given in patent publication US20030148511A1.

Molecular target: human granzyme B (human) (UniProt P10144)
Experiment: cell-based or functional assay

Sequence of UniProt P10144 (P10144 21-247 limits assumed): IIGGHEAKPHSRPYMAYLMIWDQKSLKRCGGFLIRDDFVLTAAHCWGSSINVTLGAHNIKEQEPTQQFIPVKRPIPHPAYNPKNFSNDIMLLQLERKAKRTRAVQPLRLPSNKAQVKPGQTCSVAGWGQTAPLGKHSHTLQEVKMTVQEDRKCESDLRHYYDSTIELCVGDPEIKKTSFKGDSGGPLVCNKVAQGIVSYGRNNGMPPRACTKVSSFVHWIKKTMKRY

- apoptosis of Jurkat cells (% of cells YOPRO-1-positive) after perforin and human granzyme B (% of cells YOPRO-1-positive): 27
Substance: serine protease inhibitor 6 (SPI6), mouse serpin
